According to patent publication US20080026996A1, “Selective Vpac2 Receptor Reptide Agonists” (ELI LILLY AND COMPANY, priority 2004, published 2008):
Where no end group is shown, it is not given here. The star is where a group is joined. Hexanoyl = CCCCCC(=O)*

T1: human VPAC2 receptor (human, UniProt P41587 24-438)
T1 sequence (looked up): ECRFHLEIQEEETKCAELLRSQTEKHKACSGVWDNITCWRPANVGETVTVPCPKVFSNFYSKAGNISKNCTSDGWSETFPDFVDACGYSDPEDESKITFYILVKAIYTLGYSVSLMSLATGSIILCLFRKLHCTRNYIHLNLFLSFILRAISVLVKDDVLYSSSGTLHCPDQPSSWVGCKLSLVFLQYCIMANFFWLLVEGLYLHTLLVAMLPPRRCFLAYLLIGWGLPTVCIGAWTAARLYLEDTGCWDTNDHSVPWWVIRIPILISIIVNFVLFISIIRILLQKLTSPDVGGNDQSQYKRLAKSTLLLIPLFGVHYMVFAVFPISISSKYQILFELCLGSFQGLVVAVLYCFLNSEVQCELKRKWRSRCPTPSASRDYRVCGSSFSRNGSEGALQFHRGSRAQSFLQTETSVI


target: T1, human VPAC2 receptor; test: cell-based or functional assay

| Binder | EC50 cAMP, Alpha Screen |
| --- | --- |
| Hexanoyl-HSDAVFTANYTRLRKQVAAKKYLQSIKNKRYGGPSSGAPPPS [P158] | 110 pM |
| Hexanoyl-HSDAVFTDNYTRLRKQVAAKLYLQSIKNKRYGGPSSGAPPPS [P185] | 180 pM |
| Hexanoyl-HSDAVFTDNYTRLRKQVAAKKYAQSIKNKRYGGPSSGAPPPS [P235] | 820 pM |
| Hexanoyl-HSDAVFTDNYTRLRKQVAAKKYWQSIKNKRYGGPSSGAPPPS [P230] | 300 pM |
| Hexanoyl-HSDAVFTDNYTRLRKQVAAKFYLQSIKNKRYGGPSSGAPPPS [P186] | 150 pM |
| Hexanoyl-HSDAVFTYNYTRLRKQVAAKKYLQSIKNKRYGGPSSGAPPPS [P163] | 5530 pM |
| Hexanoyl-HSDAVFTDNYTRLQKQVAAKQYLQSIKNKRYGGPSSGAPPPS [P253] | 460 pM |
| Hexanoyl-HSEAVFTDNYTRLRKQVAAKKYLQSIKNKRYGGPSSGAPPPS [P224] | 140 pM |
| Hexanoyl-HSDAVFTEEYTRLQKQVAAKQYLQSIKNKRYGGPSSGAPPPS [P165] | 940 pM |
| Hexanoyl-HSDAVFTDNYTRLLKQVAAKKYLQSIKNKRYGGPSSGAPPPS [P174] | 260 pM |
| Hexanoyl-HSDAVFTDNYTRLRKQVAAKRYLQSIKNKRYGGPSSGAPPPS [P182] | 290 pM |
| Hexanoyl-HSDAVFTENYTRLRKQVAAKKYLQSIKNKRYGGPSSGAPPPS [P159] | 170 pM |
| Hexanoyl-HSDAVFTDNYTRLRRQVAAKKYLQSIKNKRYGGPSSGAPPPS [P176] | 280 pM |
| Hexanoyl-HSDAVFTDNYTRLQKQVAAQKYLQSIKNKRYGGPSSGAPPPS [P252] | 260 pM |
| Hexanoyl-HSDAVFTDNYTRLRKQVAAKQYLQSIKNKRYGGPSSGAPPPS [P183] | 140 pM |
| Hexanoyl-HSDAVFTDNYTRLLAKLALQKYLQSIKNKRYGGPSSGAPPPC [P164] | 110 pM |
| Hexanoyl-HSDAVFTRNYTRLRKQVAAKKYLQSIKNKRYGGPSSGAPPPS [P162] | 11100 pM |

| Binder | EC50 cAMP, Alpha Screen |
| --- | --- |
| Hexanoyl-HSDAVFTDNYTRLLAKLAAQKYLQSIKNKRYGGPSSGAPPPS [P197] | 90 pM |
| Hexanoyl-HSDAVFTLNYTRLRKQVAAKKYLQSIKNKRYGGPSSGAPPPS [P161] | 4000 pM |
| Hexanoyl-HSDAVFTDNYTRLLAQLALQKYLQSIKNKRYGGPSSGAPPPS [P195] | 250 pM |
| Hexanoyl-HSDAVFTKNYTRLRKQVAAKKYLQSIKNKRYGGPSSGAPPPS [P160] | 13200 pM |
| Hexanoyl-HSDAVFTDQYTRLLAKLALQKYLQSIKQKRYGGPSSGAPPPS [P192] | 180 pM |
| Hexanoyl-HSDAVFTDNYTRLRKQVAAKKYLQSIKNKRFGGPSSGAPPPS [P203] | 140 pM |
| Hexanoyl-HSDAVFTDNYTRLAKQVAAKKYLQSIKNKRYGGPSSGAPPPS [P173] | 250 pM |
| Hexanoyl-HSDAVFTDNYTRLKKQVAAKKYLQSIKNKRYGGPSSGAPPPS [P171] | 820 pM |
| Hexanoyl-HSDAVFTDNYTRLRKQVAAKKYFQSIKNKRYGGPSSGAPPPS [P231] | 260 pM |
| Hexanoyl-HSDAVFTDNYTRLRKQVAAAKYLQSIKNKRYGGPSSGAPPPS [P181] | 130 pM |
| Hexanoyl-HSDAVFTDNYTRLLAKVALQKYLQSIKNKRYGGPSSGAPPPS [P196] | 230 pM |
| Hexanoyl-HSDAVFTDNYTRLRKQVAAKKYVQSIKNKRYGGPSSGAPPPS [P234] | 160 pM |
| Hexanoyl-HSDAVFTDNYTRLRLQVAAKKYLQSIKNKRYGGPSSGAPPPS [P179] | 240 pM |
| Hexanoyl-HSDAVFTDNYTRLRKQVAAKAYLQSIKNKRYGGPSSGAPPPS [P184] | 220 pM |
| Hexanoyl-HSDAVFTDNYTRLRFQVAAKKYLQSIKNKRYGGPSSGAPPPS [P180] | 1040 pM |
| Hexanoyl-HSDAVFTDNYTRLRKQVAAKKYIQSIKNKRYGGPSSGAPPPS [P233] | 110 pM |
| Hexanoyl-HSDAVFTDNYTRLFKQVAAKKYLQSIKNKRYGGPSSGAPPPS [P175] | 680 pM |
